{
  "source": "paper doi:10.1101/2021.03.12.435194",
  "about": "“Antibody evasion by the Brazilian P.1 strain of SARS-CoV-2” (bioRxiv, 2021)",
  "binders": {"B1": {"name": "EY6A Fab (Fab, V domains shown)", "VH": "EVQLVESGGGVVQPGRSLRLSCAASAFTFSSYDMHWVRQAPGKGLEWVAVISYDGSNKYYADSVKGRFTISRDNSKNTLYLQMNSLRAEDTAVYYCAKDGGKLWVYYFDYWGQGTLVTVSS", "VL": "not shown"}},
  "target": "T1, WT RBD (Wuhan) (SARS-CoV-2, Wuhan (RBD identical in …, UniProt P0DTC2))",
  "T1 construct": "also called Wuhan RBD; native RBD",
  "assay": "crystal structure",
  "conditions": "both partners purified",
  "data": [
    {"binder": "B1", "values": [
      {"measurement": "binding result", "value": "binds"}
    ]}
  ]
}
